Measurements reported in US20090246219A1.

Target: recombinant truncated protein E pE22-160, designated pE(A) (H. influenzae (NTHi strain 772))
Assay: Western blot of pE(A) probed with IgD(λ)

Substance: human IgD(λ) myeloma protein (human IgD myeloma whole serum IgD(λ), The Binding Site, Birmingham, England) (antibody)
- amount of pE(A) detected on Western blot: 0.01 microg
